Measured values as given in US20210253724A1 (Hoffmann-La Roche, published 2021).

Columns and labels:
[1] = molecular target: T1, human 4-1BB (CD137) on Jurkat-hu4-1BB-NFκB-luc2 reporter cells (human, UniProt Q07011 24-255); experiment: flow cytometry on Jurkat-hu4-1BB-NFκB-luc2 cells
T1 construct: Reporter cell line bought from Promega; also called cell-expressed human 4-1BB
Experimental: Plates were incubated for 30 minutes at 4° C. and washed once with 200 μL 4° C. cold DPBS buffer. […] Cells were washed twice with 200 μL 4° C. DPBS buffer and then resuspended in 50 μL/well DPBS containing 1% Formaldehyde for fixation. The same or the next day cells were resuspended in 100 μL FACS-buffer and acquired using MACSQuant Analyzer X (Miltenyi Biotec).

[2] = molecular target: T2, human FAP on NIH/3T3-huFAP clone 19 cells (human, UniProt Q12884 1-760); experiment: flow cytometry on NIH/3T3-huFAP clone 19 cells
T2 construct: NIH/3T3 cells transfected with a plasmid encoding human FAP
Experimental: (§1) Plates were incubated for 30 minutes at 4° C. and washed once with 200 μL 4° C. cold DPBS buffer. […] Cells were washed twice with 200 μL 4° C. DPBS buffer and then resuspended in 50 μL/well DPBS containing 1% Formaldehyde for fixation. The same or the next day cells were resuspended in 100 μL FACS-buffer and acquired using MACSQuant Analyzer 10 (Miltenyi Biotec).

[3] = molecular target: T2, human FAP on NIH/3T3-huFAP clone 19 …; experiment: flow cytometry on NIH/3T3-huFAP clone 19 cells; remark: listed apart in the source
Experimental: as §1

[4] = molecular target: T1, human 4-1BB (CD137) on …; experiment: cell-based or functional assay
[5] = molecular target: T3, hu4-1BB-SNAP Tb-labeled expressed on transfected Hek cells (human, UniProt Q07011 24-255, Tb (terbium) label on the SNAP tag); experiment: TR-FRET (TagLite) competition against d2-labeled 20H4.9 IgG1 (0.6 nM), after 4 h
T3 construct: SNAP-tag fusion of human 4-1BB; also called Tb hu4-1BB-SNAP

[6] = molecular target: T1, human 4-1BB (CD137) on …; experiment: cell-based or functional assay; set-up: AUC of NFκB-luciferase activation curve, no FAP+ cells / AUC of NFκB-luciferase activation curve, with WM-266-4 cells: unit not given beside the values
[7] = molecular target: T1, human 4-1BB (CD137) on …; experiment: cell-based or functional assay; remark: listed apart in the source
[8] = molecular target: T4, cynomolgus monkey CEACAM5 on CHO-k1-cynoCEACAM5 clone 8 cells (cynomolgus monkey); experiment: flow cytometry on CHO-k1-cynoCEACAM5 clone 8; set-up: unit not given beside the values
T4 construct: whole, on cells

[9] = molecular target: T1, human 4-1BB (CD137) on …; experiment: cell-based or functional assay; set-up: AUC of NFκB-luciferase activation curve, no CEA+ cells / AUC of NFκB-luciferase activation curve, with CHO-k1-cynoCEACAM5 clone 8: unit not given beside the values

| EC50 [1] | AUC [2] | EC50 [3] | EC50 of NFκB-luciferase activation curve, with NIH/3T3-huFAP clone 19 cells [4] | EC50 of NFκB-luciferase activation curve, with WM-266-4 cells [4] | IC50 [5] | AUC of NFκB-luciferase activation curve, no FAP+ cells [6] | AUC of NFκB-luciferase activation curve, with NIH/3T3-huFAP clone 19 cells [6] | AUC of NFκB-luciferase activation curve, with WM-266-4 cells [6] | EC50 of NFκB-luciferase activation curve, no CEA+ cells [7] | EC50 of NFκB-luciferase activation curve, with CHO-k1-cynoCEACAM5 clone 8 [7] | EC50 of NFκB-luciferase activation curve, with CHO-k1-humanCEACAM5 clone 11 [7] | EC50 of NFκB-luciferase activation curve, with CHO-k1-humanCEACAM5 clone 12 [7] | AUC [8] | AUC of NFκB-luciferase activation curve, no CEA+ cells [9] | AUC of NFκB-luciferase activation curve, with CHO-k1-cynoCEACAM5 clone 8 [9] | AUC of NFκB-luciferase activation curve, with CHO-k1-humanCEACAM5 clone 11 [9] | AUC of NFκB-luciferase activation curve, with CHO-k1-humanCEACAM5 clone 12 [9] | Binder |
| --- | --- | --- | --- | --- | --- | --- | --- | --- | --- | --- | --- | --- | --- | --- | --- | --- | --- | --- |
| 0.062 nM | 40200 | 1.81 nM | 0.02 nM | 0.06 nM | 1.9 nM | 715 | 109000 | 49400 | – | – | – | – | – | – | – | – | – | 2+1 H2H 4-1BB (20H4.9)/FAP (4B9) P329GLALA IgG1 (bispecific antibody, Bivalent for 4-1BB, monovalent for FAP (cross-Fab fused head to head); also called 4-1BB (20H.9)×FAP 2+1 H2H; anti-4-1BB (20H4.9)×anti-FAP (4B9) 2+1 H2H huIgG1 P329GLALA) heavy 1: QVQLQQWGAGLLKPSETLSLTCAVYGGSFSGYYWSWIRQSPEKGLEWIGEINHGGYVTYNPSLESRVTISVDTSKNQFSLKLSSVTAADTAVYYCARDYGPGNYDWYFDLWGRGTLVTVSSASTKGPSVFPLAPSSKSTSGGTAALGCLVEDYFPEPVTVSWNSGALTSGVHTFPAVLQSSGLYSLSSVVTVPSSSLGTQTYICNVNHKPSNTKVDEKVEPKSCDKTHTCPPCPAPEAAGGPSVFLFPPKPKDTLMISRTPEVTCVVVDVSHEDPEVKFNWYVDGVEVHNAKTKPREEQYNSTYRVVSVLTVLHQDWLNGKEYKCKVSNKALGAPIEKTISKAKGQPREPQVCTLPPSRDELTKNQVSLSCAVKGFYPSDIAVEWESNGQPENNYKTTPPVLDSDGSFFLVSKLTVDKSRWQQGNVFSCSVMHEALHNHYTQKSLSLSP heavy 2: not shown light 1: not shown light 2: EVQLLESGGGLVQPGGSLRLSCAASGFTFSSYAMSWVRQAPGKGLEWVSAIIGSGASTYYADSVKGRFTISRDNSKNTLYLQMNSLRAEDTAVYYCAKGWFGGFNYWGQGTLVTVSSASVAAPSVFIFPPSDEQLKSGTASVVCLLNNFYPREAKVQWKVDNALQSGNSQESVTEQDSKDSTYSLSSTLTLSKADYEKHKVYACEVTHQGLSSPVTKSFNRGEC |
| – | – | – | – | – | – | – | – | – | 0.1 nM | 0.14 nM | 0.02 nM | 0.02 nM | 169 | 774 | 802 | 76200 | 72300 | 2+1 H2H 4-1BB (20H4.9)/CEA (MFE23) huIgG1 P329GLALA (bispecific antibody, also called 2+1 H2H anti-4-1BB (20H4.9)×anti-CEA (MFE23) huIgG1 P329GLALA) heavy 1: QVQLQQWGAGLLKPSETLSLTCAVYGGSFSGYYWSWIRQSPEKGLEWIGEINHGGYVTYNPSLESRVTISVDTSKNQFSLKLSSVTAADTAVYYCARDYGPGNYDWYFDLWGRGTLVTVSSASTKGPSVFPLAPSSKSTSGGTAALGCLVEDYFPEPVTVSWNSGALTSGVHTFPAVLQSSGLYSLSSVVTVPSSSLGTQTYICNVNHKPSNTKVDEKVEPKSCDKTHTCPPCPAPEAAGGPSVFLFPPKPKDTLMISRTPEVTCVVVDVSHEDPEVKFNWYVDGVEVHNAKTKPREEQYNSTYRVVSVLTVLHQDWLNGKEYKCKVSNKALGAPIEKTISKAKGQPREPQVCTLPPSRDELTKNQVSLSCAVKGFYPSDIAVEWESNGQPENNYKTTPPVLDSDGSFFLVSKLTVDKSRWQQGNVFSCSVMHEALHNHYTQKSLSLSP heavy 2: not shown light 1: not shown light 2: QVKLQQSGAELVRSGTSVKLSCTASGFNIKDSYMHWLRQGPEQGLEWIGWIDPENGDTEYAPKFQGKATFTTDTSSNTAYLQLSSLTSEDTAVYYCNEGTPTGPYYFDYWGQGTTVTVSSASVAAPSVFIFPPSDEQLKSGTASVVCLLNNFYPREAKVQWKVDNALQSGNSQESVTEQDSKDSTYSLSSTLTLSKADYEKHKVYACEVTHQGLSSPVTKSFNRGEC |
| – | – | – | – | – | – | – | – | – | 0.09 nM | 0.1 nM | 0.05 nM | 0.04 nM | 614 | 1130 | 26500 | 58100 | 56600 | 2+1 H2H 4-1BB (20H4.9)/CEA (A5H1EL1D) huIgG1 P329GLALA (bispecific antibody, also called 2+1 H2H anti-4-1BB (20H4.9)×anti-CEA (A5H1EL1D) huIgG1 P329GLALA) heavy 1: QVQLQQWGAGLLKPSETLSLTCAVYGGSFSGYYWSWIRQSPEKGLEWIGEINHGGYVTYNPSLESRVTISVDTSKNQFSLKLSSVTAADTAVYYCARDYGPGNYDWYFDLWGRGTLVTVSSASTKGPSVFPLAPSSKSTSGGTAALGCLVEDYFPEPVTVSWNSGALTSGVHTFPAVLQSSGLYSLSSVVTVPSSSLGTQTYICNVNHKPSNTKVDEKVEPKSCDKTHTCPPCPAPEAAGGPSVFLFPPKPKDTLMISRTPEVTCVVVDVSHEDPEVKFNWYVDGVEVHNAKTKPREEQYNSTYRVVSVLTVLHQDWLNGKEYKCKVSNKALGAPIEKTISKAKGQPREPQVCTLPPSRDELTKNQVSLSCAVKGFYPSDIAVEWESNGQPENNYKTTPPVLDSDGSFFLVSKLTVDKSRWQQGNVFSCSVMHEALHNHYTQKSLSLSP heavy 2: not shown light 1: not shown light 2: EVQLLESGGGLVQPGGSLRLSCAASGFTFTDYYMNWVRQAPGKGLEWLGFIGNKANAYTTEYSASVKGRFTISRDKSKNTLYLQMNSLRAEDTATYYCTRDRGLRFYFDYWGQGTTVTVSSASVAAPSVFIFPPSDEQLKSGTASVVCLLNNFYPREAKVQWKVDNALQSGNSQESVTEQDSKDSTYSLSSTLTLSKADYEKHKVYACEVTHQGLSSPVTKSFNRGEC |
